The results in this text go back to patent US20150175697A1 (MacroGenics, published 2015).

Test [1] has as its target soluble CD16A (sCD16A) (human) (UniProt P08637). Nature of the test: SPR (BIAcore), receptor immobilised. On the technique in general: SPR reads the build-up and loss of mass on a sensor chip optically.
In test [2] the target is T1, soluble CD32B (sCD32B) (human, UniProt P31994 43-217).
T1 construct: extracellular domain; also called FcγRIIB; soluble CD32B ectodomain
T1 sequence (looked up): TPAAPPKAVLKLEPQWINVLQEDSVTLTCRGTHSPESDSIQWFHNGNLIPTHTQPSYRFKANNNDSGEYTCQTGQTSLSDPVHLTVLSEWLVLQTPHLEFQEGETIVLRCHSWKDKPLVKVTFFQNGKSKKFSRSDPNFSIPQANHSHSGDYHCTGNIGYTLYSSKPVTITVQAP
Nature of the test: sandwich ELISA: sCD32B coated (sCD32B-Ig, 2 ug/ml), diabody titrated, labelled sCD16A as probe; signal needs both bindings.
Procedure: The binding of eluted and purified diabodies was characterized by ELISA assay, as described in 5.4.2. 50 ul/well of a 2 ug/ml solution of sCD32B-Ig was coated on 96-well Maxisorp plate in Carbonate buffer at 4° C. over night. The plate was washed three times with PBS-T (PBS, 0.1% Tween 20) and blocked by 0.5% BSA in PBS-T for 30 minutes at room temperature. […] The plate was then incubated at room temperature for 1 hour. After washing with PBS-T three times, 50 ul/well of 0.2 ug/ml sCD16A-Biotin was added to each well. The plate was again incubated at room temperature for 1 hour. After washing with PBS-T three times, 50 ul/well of a 1:5000 dilution of HRP conjugated streptavidin (Amersham Pharmacia Biotech) was used for detection. The HRP-streptavidin was allowed to incubate for 45 minutes at room temperature. The plate was washed with PBS-T three times and developed using 80 ul/well of TMB substrate. After a 10 minute incubation, the HRP-TMB reaction was stopped by adding 40 ul/well of 1% H₂SO₄.

In test [3] the target is T1, soluble CD32B (sCD32B). Nature of the test: sandwich ELISA on conditioned medium: soluble FcRIIb-G2-Agly coated (100 ng/well), diabody titrated, FcRIIIa-G2-Biotin probe and streptavidin-HRP; signal needs both bindings. A general note: In an ELISA, binding on a coated surface is turned into a signal by an enzyme label.
Procedure: After three days in culture, the conditioned medium were harvested and characterized by binding ELISA.
100 ng/well of soluble FcRIIb-G2-Agly was coated on 96-well Maxisorp plate in Carbonate buffer at 40° C. overnight. Plate was washed three times with PBS/0.1% Tween20 and then blocked by 0.5% BSA in PBS/0.1% Tween 20 for 30 mins at room temperature before adding diabodies. […] The plate was incubated at room temperature for 1 hour. After washed with PBS/0.1% Tween20 three times, 10 ng/well of FcRIIIa-G2-Biotin was added to the plate. The plate was incubated at room temperature for 1 hour. After washed with PBS/0.1% Tween20 three times, 50 ul of 1:5000 dilution of HRP conjugated Streptavidin (Amersham Pharmacia Biotech) was used for detection. After 45 minutes incubation at room temperature, the plate was washed with PBS/0.1% Tween20 three times and developed using TMB substrate. After 10 minutes incubation, the reaction was stopped by 1% H2SO4. The OD450 nm was read by SOFTmax program.
For test [4], the target named is T2, human serum albumin (HSA) (human, UniProt P02768 25-609).
T2 construct: also called HRP-human albumin
The test is described as follows: Albumin Binding Assay; x axis hE16scFv-ABD Concentration (ug/ml); albumin taken as HSA as in Table 23.

Test [5] addresses T2, human serum albumin (HSA). Nature of the test: HSA binding class (+++ 0.7-1.0; ++ 0.4-0.7; + 0.1-0.4).
In test [6] the target is T2, human serum albumin (HSA). Nature of the test: Albumin Binding Assay; x axis hE16scFv-ABD Concentration (ug/ml); albumin taken as HSA as in Table 23. The source holds these as a separate data set.
Test [7] addresses T2, human serum albumin (HSA). The test is described as follows: ABD-Binding Elisa; x axis Protein concentration (ug/ml); albumin taken as HSA as in Table 23.
In test [8] the target is T1, soluble CD32B (sCD32B). Nature of the test: sandwich ELISA on conditioned medium: soluble FcRIIb-G2-Agly coated, FcRIIIa-G2-Biotin probe and streptavidin-HRP.
Test [9] has as its target T2, human serum albumin (HSA). Nature of the test: SPR sensorgrams with HSA; printed under the panel.
Test [10] has as its target T1, soluble CD32B (sCD32B). Nature of the test: SPR sensorgrams with sCD32B; printed under the panel.
In test [11] the target is T3, soluble CD16A(158F) (human, UniProt P08637 17-208).
T3 construct: extracellular domain; also called CD16A(F158); sCD16A
The test is described as follows: SPR sensorgrams with sCD16A (158F per paragraph 834); printed under the panel.

Test [12] concerns the target T4, soluble CD16A (sCD16A) (human, UniProt P08637 17-208).
T4 construct: extracellular domain; given only as soluble; immobilised in SPR, plate coat or biotin/HRP-labelled probe in ELISA; also called FcγRIIIA; sCD16A-Biotin
Nature of the test: dual ELISA: CD16A coated, DART titrated, biotinylated sCD32B detection, without HSA.

In test [13] the target is T4, soluble CD16A (sCD16A). Nature of the test: dual ELISA: CD16A coated, DART titrated, biotinylated sCD32B detection, with 3 mg/ml HSA.
Test [14] has as its target T5, soluble CD32A (sCD32A) (UniProt P12318 34-217, limits assumed).
T5 construct: extracellular domain; also called sCD32A (negative control)
T5 sequence (looked up): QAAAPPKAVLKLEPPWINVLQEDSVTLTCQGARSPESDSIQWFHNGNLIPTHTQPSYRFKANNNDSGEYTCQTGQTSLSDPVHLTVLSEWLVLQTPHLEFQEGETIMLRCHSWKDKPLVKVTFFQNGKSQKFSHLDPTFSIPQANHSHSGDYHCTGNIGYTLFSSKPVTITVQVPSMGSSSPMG
The test is described as follows: SPR (BIAcore): sCD32A (negative control) immobilised, diabody injected for 60 s.

Test [15] addresses T1, soluble CD32B (sCD32B). Nature of the test: SPR (BIAcore), receptor immobilised.
Test [16] has as its target T4, soluble CD16A (sCD16A). Nature of the test: SPR (BIAcore): sCD16 immobilised, diabody injected for 60 s.
The target of test [17] is T4, soluble CD16A (sCD16A). The test is described as follows: sandwich ELISA on conditioned medium: soluble FcRIIb-G2-Agly coated, FcRIIIa-G2-Biotin probe and streptavidin-HRP.

T4 sequence (P08637 17-208): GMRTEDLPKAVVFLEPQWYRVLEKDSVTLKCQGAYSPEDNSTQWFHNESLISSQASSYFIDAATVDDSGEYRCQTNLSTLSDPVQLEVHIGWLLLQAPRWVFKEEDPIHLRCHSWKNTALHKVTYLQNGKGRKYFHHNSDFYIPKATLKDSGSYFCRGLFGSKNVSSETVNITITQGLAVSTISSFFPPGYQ
T3 sequence (P08637 17-208): as above
Chain of soluble CD16A (sCD16A) (human) (P08637 17-208): as above

What is called Kd is the free concentration of one partner at which half of the binding sites on the other are occupied at equilibrium, for simple one-to-one binding. Read a high Kd as lower affinity. For the molecule h3G8 scFv, the dissociation constant Kd in test [1] came to 38.7 nM.

B1: h2B6-h3G8 covalent bispecific diabody (CBD) (bispecific antibody)
chain 1: EIVLTQSPDFQSVTPKEKVTFTCRTSQSIGTNIHWYQQKPDQSPKLLIKEVSESISGVPSRFSGSGSGTDFTLTINSLEAEDAATYYCQQSNTWPFTFGGGTKVEIKGGGSGGGGQVTLRESGPALVKPTQTLTLTCTFSGFSLSTSGMGVGWIRQPPGKALEWLAHIWWDDDKRYNPALKSRLTISKDTSKNQVVLTMTNMDPVDTATYYCAQINPAWFAYWGQGTLVTVSSLGGC
chain 2: DIVMTQSPDSLAVSLGERATINCKASQSVDFDGDSFMNWYQQKPGQPPKLLIYTTSNLESGVPDRFSGSGSGTDFTLTISSLQAEDVAVYYCQQSNEDPYTFGQGTKLEIKGGGSGGGGQVQLVQSGAEVKKPGASVKVSCKASGYTFTNYWIHWVRQAPGQGLEWIGVIDPSDTYPNYNKKFKGRVTMTVVVSTSTAYMELRSLRSDDTAVYYCARNGDSDYYSGMDYWGQGTTVTVSSLGGC
notes: covalent heterodimer of constructs 1 and 2; also called h2B6-h3G8 CBD; h2B6-h3G8 diabody
Broadly, the EC50 (read off the curve) is the concentration needed to bring the measured effect to its halfway point. A higher EC50 (read off the curve) goes with weaker potency. On to B1, for which the “EC50 (read off the curve)” value in test [2] was around 0.05 µg/mL.

B2: Hu2B6 4.5-Hu3G8 5.1 (bispecific antibody)
chain 1: B1 chain 2
chain 2: B1 chain 1
modifications: the two chains are joined by a disulfide between their C-terminal LGGC cysteines
notes: tested as conditioned medium of HEK-293 cells; also called Hu2B6 4.5-Hu3G8 5.1 biospecific diabody
Consider B2, for which, in [3], the “EC50 (read off the curve)” value was around 0.05 µg/mL. LAEAKVLANRELDKYGVSDYYKNLADNAKTVEGVKALIDEILAALP (other, also called 65A/66D) [ABD3 I65A/N66D]: the binding result in test [4] is on record as “binds”. LAEAKVLANRELDKYGVSDYYKNAANNAKTAEGVKALIDEILAALP (other, also called 64A/65A/71A) [ABD3 L64A/I65A/V71A (ABD (AAA))]: the HSA binding in test [5] was 0.4 to 0.7. Consider LAEAKVLANRELDKYGVSDYYKNLINNAKSVEGVKALIDEILAALP (other) [ABD3 T70S], for which the HSA binding in test [5] was 0.7 to 1. LAEAKVLANRELDKYGVSDYAKNLIDNAKTVEGVKALIDEILAALP (other, also called 61A/66D) [ABD3 Y61A/N66D]: the binding result in test [6] is “binds”. The same measure, in the same setting: as for LAEAKVLANRELDKYGVSDYYKNAANNAKTVEGVKALIDEILAALP (other, also called 64A/65A) [ABD3 L64A/I65A], the entry is “binds”. For the molecule LAEAKVLANRELDKYGVSDYAKNLISNAKTVEGVKALIDEILAALP (other, also called 61A/66S) [ABD3 Y61A/N66S], the binding result in test [7] is listed as “binds”.

Turning to LAEAKVLANRELDKYGVSDYAKNLINNAKSVEGVKALIDEILAALP (other) [Y61A/T70S], the binding result in [7] is reported as “binds”.

Take LAEAKVLANRELDKYGVSDYYKNAIDNAKTVEGVKALIDEILAALP (other, also called 64A/66D) [ABD3 L64A/N66D]: in test [6], the binding result is “binds”. Turning to LAEAKVLANRELDKYGVSDYYKNLISNAKTVEGVKALIDEILAALP (other) [ABD3 N66S], in [7], the binding result is “binds”.

B3: Hu3G8 5.1 (other)
chain 1: DIVMTQSPDSLAVSLGERATINCKASQSVDFDGDSFMNWYQQKPGQPPKLLIYTTSNLESGVPDRFSGSGSGTDFTLTISSLQAEDVAVYYCQQSNEDPYTFGQGTKLEIKGGGSGGGGQVTLRESGPALVKPTQTLTLTCTFSGFSLSTSGMGVGWIRQPPGKALEWLAHIWWDDDKRYNPALKSRLTISKDTSKNQVVLTMTNMDPVDTATYYCAQINPAWFAYWGQGTLVTVSSLGGC
chain 2: B3 chain 1
modifications: homodimer of two identical chains, joined by a disulfide between the C-terminal LGGC cysteines
notes: monospecific diabody, conditioned medium; also called Hu3G8 5.1 diabody
With B3, the binding result in [8] was “no binding (tested: 0.5 ug/ml)”.

B4: hCD16-hCD32B ABD-DART (bispecific antibody)
chain 1: DIVMTQSPDSLAVSLGERATINCKASQSVDFDGDSFMNWYQQKPGQPPKLLIYTTSNLESGVPDRFSGSGSGTDFTLTISSLQAEDVAVYYCQQSNEDPYTFGQGTKLEIKGGGSGGGGQVQLVQSGAEVKKPGASVKVSCKASGYTFTNYWIHWVRQAPGQGLEWIGVIDPSDTYPNYNKKFKGRVTMTVVVSTSTAYMELRSLRSDDTAVYYCARNGDSDYYSGMDYWGQGTTVTVSSGGCGGGKVAALKEKVAALKEKVAALKEKVAALKEGGGNS
chain 2: EIVLTQSPDFQSVTPKEKVTFTCRTSQSIGTNIHWYQQKPDQSPKLLIKEVSESISGVPSRFSGSGSGTDFTLTINSLEAEDAATYYCQQSNTWPFTFGGGTKVEIKGGGSGGGGQVTLRESGPALVKPTQTLTLTCTFSGFSLSTSGMGVGWIRQPPGKALEWLAHIWWDDDKRYNPALKSRLTISKDTSKNQVVLTMTNMDPVDTATYYCAQINPAWFAYWGQGTLVTVSSGGCGGGEVAALEKEVAALEKEVAALEKEVAALEKGGGNSLAEAKVLANRELDKYGVSDYYKNLINNAKTVEGVKALIDEILAALP
notes: also called DART ABD fusion; hCD16-hCD32B EK ABD-DART
As usually defined, the koff is a measure of how fast the partners let go of each other. Read a high koff as a short-lived complex. The term kon denotes the second-order rate constant of association. A lower kon goes with slow association. With B4, the dissociation constant (Kd) in [9] came to 7.1 nM; in test [10], 30 nM; in [11], 137 nM. In addition, the values for the off-rate constant (koff) in test [9], in test [10] and in [11] were 0.00064 s⁻¹, 0.0072 s⁻¹ and 0.052 s⁻¹, respectively. The on-rate constant (kon) in [9] came out at 90000 M⁻¹ s⁻¹; in test [10], 240000 M⁻¹ s⁻¹; in [11], 380000 M⁻¹ s⁻¹. In addition, the figures for the “EC50 (read off the curve)” value in test [12] and in test [13] were around 50 ng/mL and around 60 ng/mL, respectively.

B5: h2B6 covalent monospecific diabody (CMD) (other)
chain: EIVLTQSPDFQSVTPKEKVTFTCRTSQSIGTNIHWYQQKPDQSPKLLIKEVSESISGVPSRFSGSGSGTDFTLTINSLEAEDAATYYCQQSNTWPFTFGGGTKVEIKGGGSGGGGQVQLVQSGAEVKKPGASVKVSCKASGYTFTNYWIHWVRQAPGQGLEWIGVIDPSDTYPNYNKKFKGRVTMTVVVSTSTAYMELRSLRSDDTAVYYCARNGDSDYYSGMDYWGQGTTVTVSSLGGC
modifications: covalent homodimer: two copies of this chain, disulfide-linked through the C-terminal LGGC cysteine
notes: covalent homodimer; also called h2B6 CMD; h2B6 diabody
On to B5, for which the binding result in test [14] and in test [16] was “no binding (tested: 100 nM)” in each case. For the same molecule, binding in test [15] was characterised by a dissociation constant (Kd) of 21 nM.

B6: Hu2B6 4.5 (other)
chain 1: B5 chain
chain 2: B5 chain
modifications: homodimer of two identical chains, joined by a disulfide between the C-terminal LGGC cysteines
notes: monospecific diabody, conditioned medium; also called Hu2B6 4.5 diabody
Take B6: the binding result in test [17] is recorded as “no binding (tested: 0.5 ug/ml)”.
